Patent US20250000944A1, “USE OF RECOMBINANT CALRETICULIN IN HAIR GROWTH, HAIR BREEDING, HAIR PROTECTION OR ANTI-HAIR LOSS AND RELATED PRODUCT” (BEIJING YITUBAIHUI BIOTECH CO., LTD, priority 2021, published 2025)
Entries after “also recorded” stand apart in the source; their conditions may differ.

B1: CRT-3: fragment (1-291 aa) of recombinantly expressed CRT, amino acid sequence SEQ ID NO: 12 (protein)
chain: EPAVYFKEQFLDGDGWTSRWIESKHKSDFGKFVLSSGKFYGDEEKDKGLQTSQDARFYALSASFEPFSNKGQTLVVQFTVKHEQNIDCGGGYVKLFPNSLDQTDMHGDSEYNIMFGPDICGPGTKKVHVIFNYKGKNVLINKDIRCKDDEFTHLYTLIVRPDNTYEVKIDNSQVESGSLEDDWDFLPPKKIKDPDASKPEDWDERAKIDDPTDSKPEDWDKPEHIPDPDAKKPEDWDEEMDGEWEPPVIQNPEYKGEWKPRQIDNPDYKGTWIHPEIDNPEYSPDPSIYAY
B2: CRT-1: recombinantly expressed full-length CRT (1-400 aa), amino acid sequence SEQ ID NO: 1, expressed in Pichia pastoris (protein)
chain: EPAVYFKEQFLDGDGWTSRWIESKHKSDFGKFVLSSGKFYGDEEKDKGLQTSQDARFYALSASFEPFSNKGQTLVVQFTVKHEQNIDCGGGYVKLFPNSLDQTDMHGDSEYNIMFGPDICGPGTKKVHVIFNYKGKNVLINKDIRCKDDEFTHLYTLIVRPDNTYEVKIDNSQVESGSLEDDWDFLPPKKIKDPDASKPEDWDERAKIDDPTDSKPEDWDKPEHIPDPDAKKPEDWDEEMDGEWEPPVIQNPEYKGEWKPRQIDNPDYKGTWIHPEIDNPEYSPDPSIYAYDNFGVLGLDLWQVKSGTIFDNFLITNDEAYAEEFGNETWGVTKAAEKQMKDKQDEEQRLKEEEEDKKRKEEEEAEDKEDDEDKDEDEEDEEDKEEDEEEDVPGQAKDEL

Tests used:
[1] = tested on: androgenic alopecia model; experiment: First experiment: testosterone-induced androgenic alopecia model, hair observed by dermatoscope and scanning electron microscopy; format: in vivo, C57BL/6 male mice; conditions: 21 days, proteins 0.21 mg/ml injected on the back once a day, minoxidil 5% external, finasteride 13 μg/mL; for changes in hair observed by dermatoscope: compared with the model group (frizzy hair)
Experimental: Experimental animals: C57BL/6 male mice, 6-7 weeks old, weighing (20±2) g, were provided by Beijing Vital River Laboratory Animal Technology Co. Ltd., with the animal license number of SCXK (Beijing) 2021-0006. They were kept in a 12 h light/12 h dark environment, with free access to food and water. The mice were divided into normal NC group (NC), model group (Model), positive control-minoxidil group (Minoxidil), positive control-finasteride group (Finasteride), experimental group A and experimental group B. The proteins were stored in a −70° C. refrigerator and diluted with physiological saline when used. Experimental group A used rh-CRT-1, with a concentration of 0.21 mg/ml. Experimental group B used rh-CRT-2, with a concentration of 0.21 mg/ml. There were 6 mice in each group.
The main reagents used are as follows: 4% paraformaldehyde (Beijing Solarbio Technology Co., Ltd., China), isoflurane (Rayward, China), testosterone (Shanghai Standard Biotechnology Co., Ltd., China), paraffin sectioner (Thermo, USA), small animal anesthesia machine (Rayward, China), and inverted microscope (Olympus, Japan).
Modeling and drug administration: First, the androgenic alopecia model was established. One day before the modeling, the hair in the central part of the back of the experimental animal was removed with a skin preparation knife, and the prepared area was depilated with a depilatory cream. After 24 hours of depilation, the modeling agent (testosterone, 5.0 mg/mL) was subcutaneously injected into the neck of the mice in groups except the NC group, with a total dose of 0.2 mL/mouse. The mice in the NC group were injected with an equal amount of normal saline. After modeling, the mice were administrated with drugs. The NC group was injected with normal saline once a day, 0.15 mL/mouse each time. The experimental group A, experimental group B and positive control group were injected with modeling agent (testosterone), and administrated with drugs after 2 hours, and the dose of modeling agent was 0.2 mL/mouse. The experimental group A and experimental group B were injected on the back once a day, 0.15 mL/mouse each time. The positive control minoxidil group was applied 5% minoxidil externally, 0.01 mL/mouse, once a day. The positive control finasteride group was applied finasteride at a concentration of 13 μg/mL, 0.2 mL/mouse, once a day.

[2] = tested on: mice with androgenic alopecia; experiment: Second experiment: testosterone hair loss model, hair growth, skin blackness, scanning electron microscopy and hair follicle count; format: in vivo, C57BL/6 male mice; conditions: for hair growth on the back skin: 17th day, 0.15 mL/mouse once a day; for blackness of the back skin (color tester): Day 17; for blackness of the back skin (color tester) / number of hair follicles (pathological section): P<0.01
Experimental: Experimental animals: C57BL/6 male mice, 6-7 weeks old, weighing (20±2) g, were provided by Beijing Vital River Laboratory Animal Technology Co. Ltd., with the animal license number of SCXK (Beijing) 2021-0006. They were kept in a 12 h light/12 h dark environment, with free access to food and water. The mice were divided into normal control group (normal group, NC), model group (Model), experimental group C (rh-CRT-2, with a concentration of 0.35 mg/ml) including an injection group and an external application group, experimental group D (rh-CRT-3, with a concentration of 0.21 mg/ml) including an injection group and external application group, and positive control-minoxidil group (Minoxidil). The proteins were stored in a −70° C. refrigerator and diluted with physiological saline when used. There were 6 mice in each group.
Modeling and drug administration: First, the hair loss model was established. One day before the modeling, the hair in the center of the back of the experimental animal was removed with a skin preparation knife, and the prepared skin area was depilated with a depilatory cream. After 24 hours of depilation, the normal control group was given 75% ethanol, and other groups were injected with testosterone solution (5 mg/mL) prepared with 75% ethanol, 0.01 mL/mouse. Two hours later, the injection groups of experimental group C and experimental group D were injected on the back, 0.15 mL/mouse, once a day, for 17 consecutive days; the external application groups of experimental group C and experimental group D were applied on the back, 0.15 mL/mouse, once a day, for 17 consecutive days. The normal control group and the model group were externally applied with physiological saline, once a day, 0.15 mL/mouse, for 17 consecutive days. During the drug administration process, except for the normal control group, all other groups were injected with the modeling agent (testosterone), and administrated with drugs after 2 hours. […] After the experiment, the mouse skin was pathologically sectioned as follows: The skin pathological tissue was fixed in 4% paraformaldehyde, trimmed, dehydrated and transparent, and then embedded. The slices were cut with a thickness of 6 μm using a paraffin slicer, and further dewaxed, stained, dehydrated, transparent and sealed. The hair follicles in different areas were observed under an optical microscope, and the number of hair follicles was statistically analyzed.
Scanning electron microscopy observation: At the end of the experiment, hair shafts were randomly plucked from the newly formed hair area on the back of each group of mice. Three mice were selected from each group. The plucked hair shafts were fixed and the changes of hair shafts and hair cuticles were observed by scanning electron microscopy.
Statistical analysis: All data were processed using SPSS 17.0 software. One-way ANOVA was used for comparisons among multiple groups. Data were expressed as mean±standard deviation (x±s). P<0.05 was considered statistically significant, and P>0.05 was not considered statistically significant.

[3] = tested on: AGA (androgen alopecia) model mice; experiment: Fourth experiment: hair growth score in DHT-induced AGA model mice; format: in vivo, C57BL/6N male mice; conditions: Day 17; for hair growth score compared with the Model group: external application 100 μL, CRT 0.35 mg/ml, MNX 5 mg/ml
Experimental: The experimental animals were the same as in the third experiment.
The AGA model was established in the same manner as the third experiment, and the administration was carried out as follows: The AGA model was established by injecting dihydrotestosterone into the experimental mice. Dihydrotestosterone (DHT) solution was injected subcutaneously at multiple points every day, 100 μL/mouse (5 mg/kg body weight), and then the drug was administered after 3 h of absorption. CRT-3 and CRT-1 protein solutions were applied externally. 100 μL of protein solution was applied, and 100 μl of minoxidil MNX was applied. The solvent formula comprised 50% ethanol, 20% propylene glycol, and 30% pure water.
The scoring criteria and scoring process were the same as those in the third experiment.

[4] = tested on: AGA (androgenic alopecia) model mice; experiment: Third experiment: hair growth score in DHT-induced AGA model mice; format: in vivo, C57BL/6N male mice; conditions: Day 17
Experimental: C57BL/6N male mice, 6-7 weeks old, weighing (18-20) g, 50 mice, with the animal license number of SCXK (Beijing) 2021-0006, were kept in a 12 h light/12 h dark environment, with free access to food and water. Adaptive feeding was performed for about 1 week.
The hair in an area of about 2 cm×3 cm at the border of the spine was shaved using an electric shaver. The depilatory area was applied with 8% sodium sulfide solution. After 90±10 s, the depilatory area on the back was cleaned with cotton balls dipped in water, the residual sodium sulfide was washed away with a washing bottle, and then the mice were wiped dry. Because the hair follicle cycle of mice was in the resting phase at this time, the mouse skin was pink. Mice were randomly divided into groups using Excel software, 10 mice in each group, and the modeling was established after 24 h and the drug was administered for 17 consecutive days. The AGA model was established by injecting dihydrotestosterone into the experimental mice. Dihydrotestosterone (DHT) solution was injected subcutaneously at multiple points every day, 100 μL/mouse (5 mg/kg body weight), and then the drug was administered after 3 h of absorption. CRT-2 and CRT-1 protein solutions were applied externally. 100 μL of protein solution was applied, and 100 μl of minoxidil MNX was applied. The CRT and MNX combination group was first applied with CRT-2 protein solution and then MNX 2 hours later. The solvent formula comprised 50% ethanol, 20% propylene glycol, and 30% pure water.
Scoring was based on the coverage of hair growth: • 0 points: no hair growth, pink in the hair removal area; • 1 point: gray in the hair removal area, hair coverage area E<20%; • 2 points: black in the hair removal area, hair coverage area 20%<E<40%; • 3 points: black in the hair removal area with a little hair growth, hair coverage area 40%<E<60%; • 4 points: black in the hair removal area with some hair growth, hair coverage area 60%<E<80%; • 5 points: black in the hair removal area, hair coverage area 80%<E<100%.
The skin color changes of mice were observed before administration every day. The hair removal time of mice was designated as Day 0, the first day of administration was designated as Day 1, and so on. The hair growth of each mouse was recorded and analyzed on Day 7, Day 9, Day 11, Day 13, Day 15, and Day 17.

[5] = external application group, compared with the model group
[6] = injection group, compared with the model group

Molecule	changes in hair observed by dermatoscope [1]	hair cuticles observed by scanning electron microscopy [1]	hair growth on the back skin ([2]; external application group)	hair growth on the back skin ([2]; injection group)	blackness of the back skin (color tester) [2, 5]	blackness of the back skin (color tester) [2, 6]	hair cuticles under scanning electron microscopy [2, 5]	hair shafts under scanning electron microscopy [2, 5]	number of hair follicles (pathological section) [2, 5]	hair cuticles under scanning electron microscopy ([2]; injection group)	hair shafts under scanning electron microscopy ([2]; injection group)	number of hair follicles (pathological section) [2, 6]	hair growth score compared with the Model group ([3]; P<0.05)	hair growth score compared with the CRT-1 group ([3]; external application, P<0.05)	hair growth score compared with the Model group ([4]; external application 100 μL, CRT 0.35 mg/ml, MNX 5 mg/ml, P<0.05)	hair growth score compared with MNX ([4]; external application, P>0.05)	hair growth score compared with MNX ([3]; external application, P>0.05)
CC(C)(C)NC(=O)[C@H]1CC[C@H]2[C@@H]3CC[C@H]4NC(=O)C=C[C@]4(C)[C@H]3CC[C@]12C [finasteride, reference compound]	smooth hair	arranged neatly	–	–	–	–	–	–	–	–	–	–	–	–	–	–	–
B1	–	–	promoted hair growth	promoted hair growth	significantly increased	significantly increased	dense	became thicker	significantly promoted	dense	thin	significantly promoted	significantly higher; also recorded: significantly increased	better than; also recorded: significantly increased	–	–	–
B2	smoother	arranged neatly	–	–	–	–	–	–	–	–	–	–	significantly higher	–	significantly higher	no significant difference	no significant difference
